Test [1] addresses Marburg Ravn GP pin peptide … (Marburg virus, Ravn strain). As to the kind of experiment: pin peptide ELISA, pin printed as D6 beside … (SEQ ID NO: 195), read at 1 hour.
The target is the same in test [2]. As to the kind of experiment: pin peptide ELISA, pin D4, supernatant diluted 1/5, read at 1 hour. For orientation: ELISA stands for enzyme-linked immunosorbent assay.
Test [3] shares this target. Description: pin peptide ELISA, pin D5, supernatant diluted 1/5, read at 1 hour.
Test [4] shares this target.
Test [5] has the same target. Description: pin peptide ELISA, pin D6, supernatant diluted 1/5, read at 1 hour.

Read-outs that look alike come from different tables or passages of the source.

B1: CAN54G2 (antibody, V domains shown)
VH: QVQLQQSGTELVRPGTSVKISCKASGYDFTNFWLGWIKQRPGHGLEWIGDIYPGGDNTYYNEKFKGKVTLTADKSSNTAYMQFSSLTSEDSAVYFCFMILYTLDYWGQGTSVTVSS
VL: not shown
As for B1, the Absorbance (1 hour) in test [1] is 1.85 absorbance.

B2: CAN30G2 (antibody, V domains shown)
VH: DVQLVESGGGLVQPGGSRKLSCTASGFTFSSFGMHWVRQAPEKGLEWVAYISSGSSKIYYADTVKGRFTISRDNPKNTLFLQMTSLRSEDTAMYYCARGWYEGAWFAYWGQGTLVTVSA
VL: DVLMTQTPLSLPVSLGDQASISCRSSQSIVHSNGDTYLEWYLQKPGQSPKLLIYKVSNRFSGVPDRFSGSGSGTDFTLRISRVEAEDLGVYYCFQGSHFPWTFGGGTKLEIK
Consider B2, for which the Absorbance (1 hour) in test [2] was determined as 0.848 absorbance; in test [3], 0.373 absorbance.

B3: CAN30G4 (antibody, V domains shown)
VH: EVKLVESGGGLVKSGGSLKLSCAVSGFTFSTYAMSWVRQIPEKRLEWVATISNGGSYIYYSDSVKGRFTISRDNAKNTLYLQMSSLRSEDTAMYYCARHRESYRYDWFAYWGQGTLVTVSA
VL: DVLMTQTPLSLPVSLGDQASISCRSSQNIVHSDGNTYLEWYLQKPGQSPKLLIYKFSNRFSGVPDRFSGSGSGTDFTLKISRVEAEDLGVYYCFQGSHVPPTFGAGTKLELK
In the case of B3, the Absorbance (1 hour) in test [3] was 1.97 absorbance; in test [4], over 3.9 absorbance.

B4: CAN30G3 (antibody, V domains shown)
VH: QVQLKESGPGLVAPSQSLSITCTVSGFSLTDYGITWIRQPPGKGLEWLGVIWGGGSAYYNLVLKSRLSISKDNSKSQVFLKMNSLQTDDTAMYYCAKHRTLITTAMDYWGQGISVTVSS
VL: DVLMTQTPLSLPVSLGDQASISCRSSQNIVHSNGNTYLEWYLQKSGQSPKLLIYKVSNRFSGVPDRFSGSGSGTDFTLKISRVEAEDLGVYYCFQGSHFPWTFGGGTKLEIK
On to B4, for which the figures for the Absorbance (1 hour) in test [5] and in test [3] were 1.12 absorbance and 1.84 absorbance, respectively.

B5: CAN30G5 (antibody, V domains shown)
VH: EVQLVESGGGLVQPKGSLKLSCAASGFAFNSYAMHWVCQAPGKGLEWVARIRIKSGNYATSYAGSVTDRFTVSRDDSQNLFYLQMNNLKTEDTAMYYCVREWEGAMDYWGQGTSVTVSS
VL: DIVLTQSPLSLPVSLGDQASISCRSSQSLVHSNGNTYLHWYLQKPGQSPNLLIYKVSNRFSGVPDRFSGSGSGTDFTLKISRVEAEDLGVYFCSQSTHVPWTFGGGTKLEIK
Turning to B5, the Absorbance (1 hour) in test [2] is 0.631 absorbance; in test [4], over 3.9 absorbance.
